Measurements: the RNAGym collection of RNA variant scans (doi:10.7554/elife.90254)

B1: OR4K15 (parent)
chain: GUUAACGGUCAUAGGCCAUGGAAACUAGGAGCACCAUUUCGCUGCCAGUGAAGAAAUGAACAAAGAAAAUCUGGGCCAGGCAGGCAUCAAAAGAAAUAGUCUUGCGCUCAACCAGAAAGUCUGUAAUCAUUUUAAGGGUA

Variants of: B1
Experiment: self-cleavage, relative activity (ratio to wild type); higher = more cleavage; in vitro, sequencing; the parent is a self-cleaving ribozyme

Row | Variant | self-cleavage
1 | GUUAACGGUUAUAGGCCAUGGAAACUAGGAGCACCAUUUCGCUGCCAGUGAAGAAAUGAACAAAGAAAAUCUGGGCCAGGCAGGCAUCAAAAGAAAUAGUCUUGCGCUCAACCAGAAAGUCUGUAACCAUUUUAAGGGUA [C10U U127C] | 0.32
2 | GUUAACGGUCUUAGGCCAUGGAAACUAGAAGCACCAUUUCGCUGCCAGUGAAGAAAUGAACAAAGAAAAUCUGGGCCAGGCAGGCAUCAAAAGAAAUAGUCUUGCGCUCAACCAGAAAGUCUGUAAUCAUUUUAAGGGUA [A11U G29A] | 0.94
3 | GUUAACGGUCAUAGGCCAUGGAAACUAGGAGCACCAUUUCGCUGCCAGUGAAGAAAUGAACAAGGAAAAUCUGGGCCAGGCAGGCAUCAAAAGAAGUAGUCUUGCGCUCAACCAGAAAGUCUGUAAUCAUUUUAAGGGUA [A64G A96G] | 1.92
4 | GUUAACGGUCAUAGGCCAUGGAAACUAGGAGCACCAUUUCGCUGCCAGUGAAGAAAUGAACAAAGAAAAUCUGGGCCAGGCAGGCAUCAAAAGAAAUAGUCUUGCGCUCGACCAGAAAGUCUGUAAUCAUUUUAAGGUUA [A110G G138U] | 0.13
5 | GUUAACGGUCAUAGGCCAUGGAAACUAGGAGCACCAUUUCGCCGCCAGUGAAGAAAUGAACAAAGAAAAUCUGGGCCAGGCAGGCAUCAAAAGAAAUAGUCUUGCGCUCAACCAGAAAGUCUGUAAUCAUCUUAAGGGUA [U43C U131C] | 1.36
6 | GUUAACGGUCAUAGGCCAUGGAAACUAGGAGCACCAUUUCGCAGCCAGCGAAGAAAUGAACAAAGAAAAUCUGGGCCAGGCAGGCAUCAAAAGAAAUAGUCUUGCGCUCAACCAGAAAGUCUGUAAUCAUUUUAAGGGUA [U43A U49C] | 1.49
7 | GAUAACGGUCAUAGGCCAUGGAAACUAGGAGCACCAUUUCGCUGCCAGUGAAGAAAUGAACAAAGAAAAUCUGGGCCAGGCAGGCAUCAAAAGAAAUAGUCUUGCGCUCAACCAGAAAGUCCGUAAUCAUUUUAAGGGUA [U2A U122C] | 0.72
8 | GUUAACGGUCAUAGGCUAUGGAAACUAGGAGCACCAUUUCGCUGCCAGUGAAGAAAUGAACAAAGAAAAUCUGGGCCAGGCAGGCAUCAAAAGAAAUAGUCUUGCGCUCAACCAGAGAGUCUGUAAUCAUUUUAAGGGUA [C17U A117G] | 1.84
9 | GUUAACGGUCAUAGGCCAUGGAAACCAGGAGCACCAUUUCGCUGCCAGUGAAGAAAUGAACAAAGAAAAUCUGGGCCAGGCAGGCAUCAAAAGAAAUAGUCUUGCGCUCAACCAGAAAGUCUGUAAUCAUUUUGAGGGUA [U26C A134G] | 1.05
10 | GUUAACGGUCAUAGGCCAUGGAAACUAGGAGCACCAUCUCGCUGCCAGUGACGAAAUGAACAAAGAAAAUCUGGGCCAGGCAGGCAUCAAAAGAAAUAGUCUUGCGCUCAACCAGAAAGUCUGUAAUCAUUUUAAGGGUA [U38C A52C] | 0.68
11 | GUUAACGGUCAUAGGCCAUGGAAACUAGGAGCACCAUUUCGCUGCCAGUGAAGAAAUGAACAAAGAAAAUCUGGGCCAGGCAGGCAUCUAAAGAAAUAGUCUUGCGCUCAACCAGAAGGUCUGUAAUCAUUUUAAGGGUA [A89U A118G] | 1.61
12 | GUUAACGGUCGUAGGCCAUGGAAACUAGGAGCACCAUUUCGCUGCCAGUGAAGAAAUGAACAAAGAAAAUCUGGGCCAGGCAGGCAUCAAAAGAAAUAGUCUUGCGCUCAACCAGAAAGUCUGCAAUCAUUUUAAGGGUA [A11G U124C] | 0.34
13 | GUUAACGGACAUAGGCCAUGGAAACUAGGAGCACCAUUUCGCUGCCAGUGAAGAAAUGAACAAAGAAAAUCUGGGCCAGGCAGGCAUCAAAAGAAAUAGUCUUGCGCUCAACCUGAAAGUCUGUAAUCAUUUUAAGGGUA [U9A A114U] | 0.07
14 | GUCAACGGUCAUAGGCCAUGGAAACUAGGAGCACCAUUUCGCUGCCAGUGAAGAAAUGAACAAAGAAAAUCUGGGCCAGGCAGGCAUCAAAAGAAAUAGUCUUGCGCUCAACCAGAAAGUCUGUGAUCAUUUUAAGGGUA [U3C A125G] | 0.74
15 | GUUAACGGUCAUAGGCCAUGGAAACUAGGAGCACCAUUUCGCUGCCAGUGAAGAAAUGAACAAAGAAAAUCUGGGCCAGGCAGGCAUCAAAAGAAAUAGUCUUGCGCUCAACCAGAAAGUCUGUAAUCAUCUUAUGGGUA [U131C A135U] | 0.87
16 | GUUAACGGUCAUAGGCCAUGGAAACAAGGAGCACCAUUUCGCUGCCAGUGGAGAAAUGAACAAAGAAAAUCUGGGCCAGGCAGGCAUCAAAAGAAAUAGUCUUGCGCUCAACCAGAAAGUCUGUAAUCAUUUUAAGGGUA [U26A A51G] | 1.15
17 | GUUAACGGUCAUAGGCCAUGGAAACUAGGAGCACCAUUUCGCUGCCAGUGAAGAAAUGAACAAAGAAAAUCUGGGCCAGGCUGGCAUCAAAAGAAAUAGUUUUGCGCUCAACCAGAAAGUCUGUAAUCAUUUUAAGGGUA [A82U C101U] | 0.04
18 | GUUAACGGUCAAAGGCCAUGGAAACUAGGAGCACCAUUUCGCUGCCAGUGAAGAAAUGAACAAAGAAAAUCUGGGCCAGGCUGGCAUCAAAAGAAAUAGUCUUGCGCUCAACCAGAAAGUCUGUAAUCAUUUUAAGGGUA [U12A A82U] | 0.3
19 | GUUAACGGUCAAAGGCCAUGGAAACUAGGAGCACCAUGUCGCUGCCAGUGAAGAAAUGAACAAAGAAAAUCUGGGCCAGGCAGGCAUCAAAAGAAAUAGUCUUGCGCUCAACCAGAAAGUCUGUAAUCAUUUUAAGGGUA [U12A U38G] | 1.9
20 | GUUAACGGUCAUAGACCAUGGAAACUAGGAGCACCAUUUCGCUGCCAGUGAAGGAAUGAACAAAGAAAAUCUGGGCCAGGCAGGCAUCAAAAGAAAUAGUCUUGCGCUCAACCAGAAAGUCUGUAAUCAUUUUAAGGGUA [G15A A54G] | 1.41
21 | GUUAACGGUCAUAGGCCAUGGAAACUAGGAGCACCAUUUCGCUGCCAGUGAAGAAAUGGACAAAGAAAAUCUGGGCCAGGCAGGCAUCAAAAGAAAUAGUCUUGCGCUCAACCAGAAAGUCUGCAAUCAUUUUAAGGGUA [A59G U124C] | 0.78

Row | Variant | self-cleavage
22 | GUUAACGGUCAUAGGCCAUGGAAACUAGGAGCACCAUUUCGCUGCCAGUGAAGAAAUGAACAAAGAAAAUCUGGGCCAGGCAGGCAUCAAAAGAAUUAGUCUUGCGCUCAACCAGAAAGUCUGUAAUCAUUUUACGGGUA [A96U A135C] | 1.11
23 | GUUAACGGUCAUAGGCCAUGGAAACUAGGAGCACCAUUUCGCUGCCAGUGAAGAAAUGAACAAAGAGAAUCUGGGCCAGGCAGGCAUCAAAAGAAAUAGUCUUGCGCUCAACCAGAAAGUCUGUAGUCAUUUUAAGGGUA [A67G A126G] | 1.21
24 | GUUAACGGUCAUAGGCCAUGGGAACUAGGAGCACCAUUUCGCUGCCAGUGAAGAAAUGAACAAAGAAAAUCUGGGCCAGGCAGGCAUCAAAAGAAAUAGUCUUGCGCUCCACCAGAAAGUCUGUAAUCAUUUUAAGGGUA [A22G A110C] | 0.3
25 | GUUAACGGUCAUAGGUCAUGGAAACUAGGAGCACCAUUUCGCUGCCAGUGAAGAAAUGAACAAAGAAAAUCUGGGCCAGGCAGGCAUCAAAAGAAAUAGUCUUGCGCUCAACCAGAGAGUCUGUAAUCAUUUUAAGGGUA [C16U A117G] | 1.84
26 | GUUAACGGUCAUAGGCCGUGGAAACUAGGAGCACCAUUUCGCUGCCAGUGAAGAAAUGAACAAAGAAAAUCUGGGCCAGGCAGGCAUCAAAAGAAACAGUCUUGCGCUCAACCAGAAAGUCUGUAAUCAUUUUAAGGGUA [A18G U97C] | 1.42
27 | GUUAACGGUCAUAGGCCAUGGAAACUAGGAGCACCAUUUCGCUGCCGGUGAAGAAAUGAACAAAGAAAAUCUGGGCCAGGCAGGCAUCAAAAGAAAUAGUCUUGCGCUCAACCAGAAAGUCUGUAAUCAUUUUGAGGGUA [A47G A134G] | 0.84
28 | GUUAGCGGUCAUAGGCCAUGGAAACUAGGAGCACCAUUUCGCUGCCAGUGAAGAAAUGAACAAAGAAAAUCUGGGCCAGGCAGGCAUCAGAAGAAAUAGUCUUGCGCUCAACCAGAAAGUCUGUAAUCAUUUUAAGGGUA [A5G A90G] | 1.11
29 | GUUAACGGUCAUAGGCCAUGGAAACUAGGAGCACCAUUUCGCUGCCGGUGAAGAAAUGAACAAAGAAAAUCUGGGCCAGGCAGGCAUCAAAAGAAAUAGUCUUGCGCUCAGCCAGAAAGUCUGUAAUCAUUUUAAGGGUA [A47G A111G] | 0.02
30 | GUUAACGAUCAUAGGCCAAGGAAACUAGGAGCACCAUUUCGCUGCCAGUGAAGAAAUGAACAAAGAAAAUCUGGGCCAGGCAGGCAUCAAAAGAAAUAGUCUUGCGCUCAACCAGAAAGUCUGUAAUCAUUUUAAGGGUA [G8A U19A] | 1.92
31 | GUUAACGGUCAUAGGCCAUGGAAACUAGGAGCACCAUUCCGCUGCCAGUGAAGAAAUGAACAAAGAAAAUCUGGGCCAGGCAGGCAUCGAAAGAAAUAGUCUUGCGCUCAACCAGAAAGUCUGUAAUCAUUUUAAGGGUA [U39C A89G] | 1.73
32 | GUUAACGGUCAUAGGCCAUGGAAACUAGGAGCACCAUUUCGCUGCCAGUGAAGAAAUGAACAAAGAAAAUCUGGGCCAGGCAGGCAUCAAAAAAAAUAGUCUUGCGCUCAACCAGAAAGUCUGUAAUCAUUUUAAGGGUA [G93A] | 2.17
33 | GUUAACGGUCAUAGGCCAUGGAAACUAGGAGCACCAUUUCGCUGCCAGUGAAGAAAUGAACAAAGAAAAUCUGGGCCAGGCAGGCAUCAAAAUAAAUAGUCUUGCGCUCAACCAGAAAGUCUGUAAUCAUUUUAAGGGUA [G93U] | 1.83
34 | GUUAACGGGCAUAGGCCAUGGAAACUAGGAGCACCAUUUCGCUGCCAGUGAAGAAAUGAACAAAGAAAAUCAGGGCCAGGCAGGCAUCAAAAGAAAUAGUCUUGCGCUCAACCAGAAAGUCUGUAAUCAUUUUAAGGGUA [U9G U72A] | 0.19
35 | GUUAACGGUCAUAGGCCAUGGAAACUAGGAGCACCAUUUCGCUGCCAGUGAAGAAAUGAACGAAGAAAAUCUGGGCCAGGCAGGCAUCAAAAGAAAUAGUCUUGCGCUCAACUAGAAAGUCUGUAAUCAUUUUAAGGGUA [A62G C113U] | 0.14
36 | GUUAACGGUCAUAGGCCAUGGCAACUAGGAGCACCAUUUCGCUGCCAGUGAAGAAAUGAACAUAGAAAAUCUGGGCCAGGCAGGCAUCAAAAGAAAUAGUCUUGCGCUCAACCAGAAAGUCUGUAAUCAUUUUAAGGGUA [A22C A63U] | 1.85
37 | GUUAACGGUCAUAGGCCUUGGAAACUAGGAGCACCAUUUCGCUGCCAGUGAAGAAAUGAACAAAGAAAAUCUGGGCCAGGCAGGCAUCAAAAGAAAUAGUCUUGCGCUCAACCCGAAAGUCUGUAAUCAUUUUAAGGGUA [A18U A114C] | 0.03
38 | GUUAGCGGUCAUAGGCCAUGGAAACUAGGAGCACCAUUUCGCUGCCAGUGAAGAAAUGAACAAAGAAAAUCUGGGCCAGGCAGGCAUCAAAAGAAAUAGUCUUGCGCUCAACCAGAAAGUAUGUAAUCAUUUUAAGGGUA [A5G C121A] | 1.89
39 | GUUAACGGUCAUAGGCCAUGGAAACUAGGAGCACCAUUUCGCUGCCAGUGAAGAAAUGUACCAAGAAAAUCUGGGCCAGGCAGGCAUCAAAAGAAAUAGUCUUGCGCUCAACCAGAAAGUCUGUAAUCAUUUUAAGGGUA [A59U A62C] | 1.11
40 | GUUAACGGUCAUAGGCCGUGGAAACUAGGAGCACCAUUUCGCUGCCAGUGAAGAAAUGAACAAAGAAAAUCUGGGCCAGGCAGGCAUCAAAAGAAAUAGUCUCGCGCUCAACCAGAAAGUCUGUAAUCAUUUUAAGGGUA [A18G U103C] | 1.04
41 | GUUAACGGUCAUAGGCCAUGGAAACUAGGAGCACCAUUUCGCUGCCAGUGAAGAAAUGGACAAAGAAAAUCUGGGCCAGGCAGGCAUCAAAAGAAACAGUCUUGCGCUCAACCAGAAAGUCUGUAAUCAUUUUAAGGGUA [A59G U97C] | 0.82
